Assay [1] deals with T1, recombinant His-tagged fibronectin extra domain B (FN-EDB).
T1 construct: 112 amino acids, expressed in E. coli from pET28a+ with N-terminal His-tag; also called fibronectin EDB-domain
Description: binding specificity, T7 peptide phage. On the procedure: (§1) To identify bispecific peptides that interact with both TNC-C and FN-EDB, cross screens were performed on both targets. During the first round of selection, microtiter plates coated with 20 μg/ml recombinant purified TNC-C were blocked with PBS containing 1% bovine serum albumin (BSA), followed by incubation with 5×10⁸ pfu of phages in PBS at 4° C. overnight, by washes to remove background, and by phage rescue and amplification in BLT5403 strain of E. coli (Novagen, EMD Biosciences, MA, USA) (Teesalu et al., Methods Enzymol. 503:35-56 (2012)). The following rounds of biopanning were carried on Ni-NTA Magnetic Agarose Beads (QIAGEN, Hilden, Germany) coated with hexahistidine-tagged FN-EDB (3 μg/μl beads) at room temperature. After 5 rounds of selection, a set of random clones was sequenced, and individual peptide-phage clones and control (G7 peptide-displaying or insertless) phages were incubated with FN-EDB and TNC-C-coated magnetic beads. RPARPAR phage (SEQ ID NO:5) and His-tagged NRP-1 b1b2 domain were used as positive control (Teesalu et al., Proc. Natl. Acad. Sci. U.S.A 106:16157-62 (2009)). To address the specificity of the peptide phage binding to the FN-EDB and TNC-C, the protein-coated beads were pre-incubated with 20 μg/ml blocking rabbit polyclonal antibodies.
(§2) Immobilized FAM-PL1 was probed with recombinant His-tagged EDB and TNC-C (or control BSA), followed by sequential incubation with rabbit anti-His-tag primary antibody, secondary goat anti-rabbit HRP antibody and a chromogenic peroxidase reaction.

Assay [2] has as its target T2, recombinant His-tagged tenascin-C C domain (TNC-C).
T2 construct: 112 amino acids, expressed in E. coli from pET28a+ with N-terminal His-tag
T2 chain: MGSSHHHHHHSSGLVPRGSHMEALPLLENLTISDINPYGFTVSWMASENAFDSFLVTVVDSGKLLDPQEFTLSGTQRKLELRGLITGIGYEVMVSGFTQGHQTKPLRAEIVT
Description: binding specificity, T7 peptide phage. As to the method:
as §1, §2

Assay [3] addresses T3, recombinant His-tagged Neuropilin-1 b1b2 domain (UniProt O14786 273-586, limits assumed).
T3 construct: domain: b1b2; also called NRP-1; NRP1
T3 sequence (looked up): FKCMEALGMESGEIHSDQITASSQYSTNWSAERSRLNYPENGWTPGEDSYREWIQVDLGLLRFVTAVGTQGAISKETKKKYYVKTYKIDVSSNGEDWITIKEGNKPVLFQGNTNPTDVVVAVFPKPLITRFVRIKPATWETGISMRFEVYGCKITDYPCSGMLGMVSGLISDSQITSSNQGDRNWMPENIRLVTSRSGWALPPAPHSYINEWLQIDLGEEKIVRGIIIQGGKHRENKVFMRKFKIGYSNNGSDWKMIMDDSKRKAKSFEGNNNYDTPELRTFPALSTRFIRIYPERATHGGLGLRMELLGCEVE
Put plainly: T7 phage binding to protein-coated magnetic beads.

The target of assay [4] is T3, recombinant His-tagged Neuropilin-1 …. Description: T7 phage binding to recombinant NRP-1 b1b2.
Assay [5] concerns the target T1, recombinant His-tagged fibronectin …. Put plainly: T7 phage binding to recombinant protein.
Assay [6] has as its target T2, recombinant His-tagged tenascin-C C …. Put plainly: T7 phage binding to recombinant protein.

No end group written: not given here.

With PPRRGLIKLKTS (not fully specified (N-terminus); also: displayed on T7 phage capsid protein, also called PL1 phage) [PL1 peptide displayed on T7 phage (PPRRGLIKLKTS)], the binding result in assay [1] is recorded as “binds”; in assay [2], “binds”; in assay [3] it was “no binding”.
With AGRGRLVR (also: displayed on T7 phage, fusion site not given here, also called PL3 phage; PL-3 phage) [PL3 peptide displayed on T7 phage (AGRGRLVR)], in assay [4], the “fold more than heptaglycine control phage” value was approximately 200 fold. For the same molecule, the binding result is “no binding” in assay [5] and “binds” in assay [6].

Source of the values: patent US20220119450A1 (UNIVERSITY OF TARTU, published 2022).
